Experimental data from patent US20210115133A1 (NGM BIOPHARMACEUTICALS, published 2021).

T1: human beta klotho expressed on cells (human, UniProt Q86Z14 1-1044)
T1 sequence: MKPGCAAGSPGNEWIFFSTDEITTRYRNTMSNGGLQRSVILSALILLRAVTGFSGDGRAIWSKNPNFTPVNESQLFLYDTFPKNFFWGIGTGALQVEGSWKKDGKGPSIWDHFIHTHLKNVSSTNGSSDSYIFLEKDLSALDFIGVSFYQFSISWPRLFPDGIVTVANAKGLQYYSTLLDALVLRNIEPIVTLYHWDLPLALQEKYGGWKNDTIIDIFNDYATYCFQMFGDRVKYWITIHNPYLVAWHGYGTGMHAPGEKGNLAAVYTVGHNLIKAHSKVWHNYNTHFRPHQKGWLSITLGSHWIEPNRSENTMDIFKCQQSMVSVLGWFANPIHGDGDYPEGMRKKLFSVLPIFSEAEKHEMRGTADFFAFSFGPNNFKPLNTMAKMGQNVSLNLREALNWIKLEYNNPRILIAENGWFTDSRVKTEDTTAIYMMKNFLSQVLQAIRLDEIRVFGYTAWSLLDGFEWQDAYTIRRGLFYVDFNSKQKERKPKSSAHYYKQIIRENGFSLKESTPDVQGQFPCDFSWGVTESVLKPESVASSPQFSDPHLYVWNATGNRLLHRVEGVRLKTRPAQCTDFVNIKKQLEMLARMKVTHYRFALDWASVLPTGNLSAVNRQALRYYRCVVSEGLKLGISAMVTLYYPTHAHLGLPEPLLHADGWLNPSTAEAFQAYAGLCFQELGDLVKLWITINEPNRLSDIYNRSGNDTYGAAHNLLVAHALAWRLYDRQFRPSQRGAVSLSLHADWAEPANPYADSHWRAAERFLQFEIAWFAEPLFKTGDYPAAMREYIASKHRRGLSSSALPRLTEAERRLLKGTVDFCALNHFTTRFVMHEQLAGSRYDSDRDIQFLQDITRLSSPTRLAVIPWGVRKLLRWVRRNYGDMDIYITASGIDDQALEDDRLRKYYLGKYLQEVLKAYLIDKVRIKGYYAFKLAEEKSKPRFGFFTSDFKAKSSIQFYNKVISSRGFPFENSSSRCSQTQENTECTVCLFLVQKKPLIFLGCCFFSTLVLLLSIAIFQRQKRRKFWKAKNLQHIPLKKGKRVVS

T2: human beta klotho protein (human, UniProt Q86Z14 53-997, limits assumed)
T2 construct: also called HuKLB; human beta klotho (R&D Systems)
T2 sequence: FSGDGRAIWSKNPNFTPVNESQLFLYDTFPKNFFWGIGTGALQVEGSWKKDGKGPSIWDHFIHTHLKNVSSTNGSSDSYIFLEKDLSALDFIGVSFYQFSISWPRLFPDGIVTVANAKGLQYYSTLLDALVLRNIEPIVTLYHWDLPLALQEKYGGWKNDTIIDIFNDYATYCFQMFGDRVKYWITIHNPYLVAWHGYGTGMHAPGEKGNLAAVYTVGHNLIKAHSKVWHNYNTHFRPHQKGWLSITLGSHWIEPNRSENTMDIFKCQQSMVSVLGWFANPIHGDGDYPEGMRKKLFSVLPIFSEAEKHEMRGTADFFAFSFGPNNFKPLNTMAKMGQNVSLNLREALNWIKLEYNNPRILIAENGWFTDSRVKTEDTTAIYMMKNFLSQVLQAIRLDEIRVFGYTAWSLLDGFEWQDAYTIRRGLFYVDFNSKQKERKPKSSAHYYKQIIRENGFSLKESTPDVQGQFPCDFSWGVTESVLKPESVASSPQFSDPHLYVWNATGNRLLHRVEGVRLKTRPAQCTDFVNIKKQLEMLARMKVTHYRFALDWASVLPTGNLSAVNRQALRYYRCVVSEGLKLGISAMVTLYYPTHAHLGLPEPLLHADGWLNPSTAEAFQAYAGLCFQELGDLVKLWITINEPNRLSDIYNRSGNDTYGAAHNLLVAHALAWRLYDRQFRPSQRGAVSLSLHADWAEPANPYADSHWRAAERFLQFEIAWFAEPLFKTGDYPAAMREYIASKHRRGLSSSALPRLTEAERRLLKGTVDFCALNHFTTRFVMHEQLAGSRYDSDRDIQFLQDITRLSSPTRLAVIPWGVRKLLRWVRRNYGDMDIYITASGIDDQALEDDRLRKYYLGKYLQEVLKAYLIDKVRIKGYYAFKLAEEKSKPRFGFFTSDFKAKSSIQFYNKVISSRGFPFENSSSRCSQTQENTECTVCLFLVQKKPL

T3: cynomolgus monkey beta klotho protein (cynomolgus monkey (Macaca fascicularis), UniProt Q86Z14 53-996 (human entry), limits assumed)
T3 construct: Soluble protein injected in Biacore assays; also called Cyno KLB; cyno beta klotho
T3 chain: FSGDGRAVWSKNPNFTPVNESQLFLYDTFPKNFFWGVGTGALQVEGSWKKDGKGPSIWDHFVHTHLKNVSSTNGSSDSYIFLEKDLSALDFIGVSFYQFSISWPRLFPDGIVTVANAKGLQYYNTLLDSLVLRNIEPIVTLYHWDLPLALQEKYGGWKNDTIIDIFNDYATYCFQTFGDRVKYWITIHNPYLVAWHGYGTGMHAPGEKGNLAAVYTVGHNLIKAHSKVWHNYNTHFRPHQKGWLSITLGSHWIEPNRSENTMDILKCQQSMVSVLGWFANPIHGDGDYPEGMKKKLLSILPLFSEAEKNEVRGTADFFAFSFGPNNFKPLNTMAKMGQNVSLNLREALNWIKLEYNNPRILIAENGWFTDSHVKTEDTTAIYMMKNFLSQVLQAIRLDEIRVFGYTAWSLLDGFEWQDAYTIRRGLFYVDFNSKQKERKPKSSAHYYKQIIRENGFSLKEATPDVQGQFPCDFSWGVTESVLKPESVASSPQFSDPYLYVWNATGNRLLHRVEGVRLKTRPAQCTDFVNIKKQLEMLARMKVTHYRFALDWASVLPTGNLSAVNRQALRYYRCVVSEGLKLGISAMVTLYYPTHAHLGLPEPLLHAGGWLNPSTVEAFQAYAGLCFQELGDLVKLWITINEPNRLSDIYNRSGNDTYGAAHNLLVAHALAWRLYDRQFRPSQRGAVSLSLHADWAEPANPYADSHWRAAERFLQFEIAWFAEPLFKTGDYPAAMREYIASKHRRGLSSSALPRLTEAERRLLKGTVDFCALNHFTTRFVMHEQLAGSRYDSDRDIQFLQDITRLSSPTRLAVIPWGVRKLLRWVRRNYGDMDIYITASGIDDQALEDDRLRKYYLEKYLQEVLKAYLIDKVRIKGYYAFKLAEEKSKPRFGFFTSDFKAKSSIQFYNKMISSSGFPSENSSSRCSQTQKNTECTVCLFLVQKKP

T4: cynomolgus monkey beta klotho expressed on cells (cynomolgus monkey (Macaca fascicularis), UniProt Q86Z14 1-1044 (human entry))
T4 chain: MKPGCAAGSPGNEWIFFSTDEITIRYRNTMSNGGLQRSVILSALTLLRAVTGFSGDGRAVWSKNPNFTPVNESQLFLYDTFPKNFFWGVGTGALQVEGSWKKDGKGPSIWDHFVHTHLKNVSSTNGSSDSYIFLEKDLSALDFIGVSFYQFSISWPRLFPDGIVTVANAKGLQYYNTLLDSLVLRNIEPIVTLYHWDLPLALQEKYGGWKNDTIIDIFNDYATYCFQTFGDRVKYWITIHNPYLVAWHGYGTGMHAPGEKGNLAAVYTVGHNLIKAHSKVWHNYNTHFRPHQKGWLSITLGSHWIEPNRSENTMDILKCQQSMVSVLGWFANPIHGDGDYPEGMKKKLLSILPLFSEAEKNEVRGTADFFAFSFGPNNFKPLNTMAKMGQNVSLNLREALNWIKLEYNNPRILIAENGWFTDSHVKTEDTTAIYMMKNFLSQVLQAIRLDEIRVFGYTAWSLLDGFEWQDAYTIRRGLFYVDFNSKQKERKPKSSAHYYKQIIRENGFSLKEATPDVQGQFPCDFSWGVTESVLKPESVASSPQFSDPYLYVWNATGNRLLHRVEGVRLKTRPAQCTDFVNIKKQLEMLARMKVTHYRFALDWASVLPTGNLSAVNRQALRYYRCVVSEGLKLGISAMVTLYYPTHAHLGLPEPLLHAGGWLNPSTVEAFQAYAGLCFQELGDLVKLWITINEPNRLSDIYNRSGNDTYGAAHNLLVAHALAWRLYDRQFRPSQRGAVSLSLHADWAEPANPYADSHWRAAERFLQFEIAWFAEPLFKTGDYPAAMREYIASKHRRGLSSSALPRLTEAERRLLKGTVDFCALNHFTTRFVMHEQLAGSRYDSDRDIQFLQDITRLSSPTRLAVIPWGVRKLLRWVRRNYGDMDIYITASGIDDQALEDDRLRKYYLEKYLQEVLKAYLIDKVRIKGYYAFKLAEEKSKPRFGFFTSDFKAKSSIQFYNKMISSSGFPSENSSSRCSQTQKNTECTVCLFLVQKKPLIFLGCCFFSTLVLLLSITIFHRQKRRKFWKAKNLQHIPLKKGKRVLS


How the values were obtained:
[1] = target: T1, human beta klotho expressed on cells; assay: cell-based or functional assay
[2] = target: T1, human beta klotho expressed on cells; assay: FACS competition on HuKLB overexpressing cells; cells pre-incubated with the row's antibody, competitor: labelled 9E19-Alexa647
Experimental: (§1) For example, for competition binding assays by FACS analysis, antibody standards were prepared that were conjugated to a fluorochrome using either A488 or A647 antibody labeling kit (Invitrogen) following manufacturer's instructions. A dose titration of the conjugated antibody standard was evaluated using HuKLB overexpressing cells. The plateau of the maximal signal of antibody binding is EC=100 and the background signal is EC=0. Competition by FACS against the fluorochrome labeled antibody was performed by pre-incubating HuKLB overexpressing cells with hybridoma supernatants for 15 minutes at room temperature. Without washing, an EC=10 concentration of A488 or A647 labelled antibody standard was added. EC=10 for an individual antibody was determined by 10% of signal using the maximum signal as (100%) and background signal as (0%). After 30 minutes at 4° C., cells are washed and analyzed by FACS. […] A partial competing antibody is one sample that show signal between labelled antibody alone and background. Antibodies that show complete competition against the same standard antibody are considered to be in the same bin.
(§2) In exemplary competition binding experiments by FACS, antibody 3I13 or 9E19 was used as an antibody standard fora positive control (competing antibody) or a negative control (labeled antibody alone), respectively. Representative results are shown in Table 5 below reported as mean fluorescence intensity (MFI).

[3] = target: T1, human beta klotho expressed on cells; assay: FACS competition on HuKLB overexpressing cells; cells pre-incubated with the row's antibody, competitor: labelled 3I13-Alexa488
Experimental: as §1, §2

[4] = target: T2, human beta klotho protein; assay: Biacore SPR; antibody captured on anti-mouse Fc CM5 chip, beta klotho 1.56-25 nM injected, 25 C
Experimental: (§3) Binding affinity measurements were also made in additional Biacore based assays. For example, equilibrium dissociation constant (KD) measurements were carried out with purified antibodies to evaluate their binding to human beta klotho and cyno beta klotho. As mentioned above, anti-mouse Fc antibody (Sigma-Aldrich, St. Louis, Mo.) was immobilized on all four flow cells of a CM5 chip using amine coupling reagents (GE Healthcare LifeSciences, Piscataway, N.J.). Purified antibodies were captured (˜100 RUs) on flow cells 2, 3 and 4 using flow cell 1 as a reference. This was followed by injection of different concentrations of human or cyno beta klotho (1.56 nM to 25 nM, two-fold dilutions in PBS-P buffer) at a flow rate of 70 μL/min and the binding kinetics were evaluated at 25° C.

[5] = target: T3, cynomolgus monkey beta klotho protein; assay: as above
Experimental: as §3

[6] = target: T4, cynomolgus monkey beta klotho expressed …; assay: cell-based or functional assay

HEK293 huKLB/R1c reporter assay EC50 (Experiment - A) [1] [nM]	HEK293 huKLB/R1c reporter assay EC50 (Experiment - B) [1] [nM]	Mean Florescence Intensity (MFI) [2] [MFI]	Mean Florescence Intensity (MFI) [3] [MFI]	Kd [4] [nM]	Kd [5] [nM]	HEK293 cynoKLB/R1c reporter assay EC50 [6] [nM]	Binder
0.333	1.99	27.8	8.1	0.4	1.9	0.438	anti-beta klotho monoclonal antibody 3I13 (antibody, V domains shown, Murine monoclonal antibody from a hybridoma (captured by anti-mouse Fc); also called 3I13 - Alexa488) VH: QVQLQQSGPELVKPGASVKISCKTSGYTFTEYTMHWVKQSHGKSLEWIGSFNPDSGGTSYNQKFKGKATLTVDKSSSTAYMELRSLTSEDSAVYYCARDDGYSTRYWYFDVWGAGTTVTVSS VL: DIQMTQSPASLSASVGETVTITCGASENIYGALNWFQRKQGKSPQLLIYGATILADGMSSRFSGSGSGRQYSLKISSLHPDDVATYYCQNVLSTPYTFGGGTKLEIK
		25.7	10.2	4.8	12.2		anti-beta klotho monoclonal antibody 2J21 (antibody, V domains shown, Murine monoclonal antibody from a hybridoma) VH: EVQLQQSGPELVKPGASVKISCKTSGYTFTEYIMHWVKQSHGKSLEWIGNIDPNTGGTSYNQKFKGKATLTVDKSSITAFMELRSLTSEDSAVYYCARDDGYSTRYWYFDVWGAGTTVTVSS VL: DIQMTQSPPSLSASVGETVTITCGASENIYGALNWYQRKQGKSPQLLIYGATNLADGMSSRFSGSGSGRQYSLKISSLHPDDVATYYCQNVLSTPYTFGGGTKLEIK
		28.5	9.1	0.92	3.2		anti-beta klotho monoclonal antibody 4A2 (antibody, V domains shown, Murine monoclonal antibody from a hybridoma) VH: EVQLQQSGPELVKPGTSVKISCKTSGYTFTEYTMYWVKQSHGKSLEWIGGFNPNYGGASYNQKFKDKATLTVDKSSSTAYMELRSLTSEDSAVYYCARDDGYSTRYWYFDVWGAGTTVTVSS VL: DIQMTQSPASLSASVGETVTITCGASENIYGALNWYQRKQGKSPQLLIYGATNLADGMSSRFSGSGSGRQYSLKISSLHPDDVATYYCQNVLSTPYTFGGGTKLEIK
